Experimental data from patent US20260365758 (published 2026).

How the values were obtained:
[1] = molecular target: cynomolgus STEAP1 (cynomolgus monkey); assay: KinExA, monovalent, live 293 cells
[2] = molecular target: human STEAP1 (human); assay: KinExA, monovalent, live 293 cells
[3] = molecular target: human STEAP1 (human); assay: FACS, LNCaP-X1.2 cells, bivalent

Chain of human STEAP1 (human) (chain, as listed by the source): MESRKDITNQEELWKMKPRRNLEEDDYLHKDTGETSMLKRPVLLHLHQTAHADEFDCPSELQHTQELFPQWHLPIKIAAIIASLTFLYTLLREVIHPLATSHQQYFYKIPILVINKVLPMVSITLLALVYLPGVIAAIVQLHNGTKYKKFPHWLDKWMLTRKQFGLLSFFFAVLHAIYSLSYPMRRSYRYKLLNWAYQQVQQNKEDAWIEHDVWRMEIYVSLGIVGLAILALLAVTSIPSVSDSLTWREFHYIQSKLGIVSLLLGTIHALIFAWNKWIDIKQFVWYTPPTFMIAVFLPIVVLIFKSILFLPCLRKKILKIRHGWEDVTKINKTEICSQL
Chain of cynomolgus STEAP1 (cynomolgus monkey) (chain, as listed by the source): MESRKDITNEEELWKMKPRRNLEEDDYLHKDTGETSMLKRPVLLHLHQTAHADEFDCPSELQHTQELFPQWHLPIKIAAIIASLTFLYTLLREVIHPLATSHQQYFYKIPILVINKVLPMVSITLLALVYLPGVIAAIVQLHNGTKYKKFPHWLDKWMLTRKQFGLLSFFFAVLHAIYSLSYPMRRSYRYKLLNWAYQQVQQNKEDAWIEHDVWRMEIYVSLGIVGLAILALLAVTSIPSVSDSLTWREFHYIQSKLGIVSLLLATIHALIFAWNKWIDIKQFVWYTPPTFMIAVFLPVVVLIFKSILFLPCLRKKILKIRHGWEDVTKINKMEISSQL

Row | Kd [1] | Kd [2] | EC50 [3] | Binder
1 | 14 nM | 29 nM |  | huAb44.v6.05-40G5c (STEAP1 arm) (antibody, V domains shown) VH: EVQLVESGGGLVQPGGSLRLSCAASGFTFSDHYMAWVRQAPGKGLVWVSYIDYDGGSTSYGDSVKGRFTISRDNAKSTLYLQMNSLRAEDTAVYYCARRSGFYHVGYAMNAWGQGTTVTVSS VL: DIVLTQTPLSLSVTPGQPASISCRSSQSLEYSDGYTYLEWYLQKPGQSPQLLIYGVSNRFSGVPDRFSGSGSGTDFTLKISRVEAEDVGVYYCFQATHDPLTFGGGTKVEIK
2 |  |  | 1.9 nM | huAb44.v6.05 (antibody, V domains shown) VH: EVQLVESGGGLVQPGGSLRLSCAASGFTFSDHYMAWVRQAPGKGLVWVSYIDYDGGSTSYGDSVKGRFTISRDNAKSTLYLQMNSLRAEDTAVYYCARRSGFYHVGYAMNAWGQGTTVTVSS VL: DIVLTQTPLSLSVTPGQPASISCRSSQSLEYSDGYTYLEWYLQKPGQSPQLLIYGVSNRFSGVPDRFSGSGSGTDFTLKISRVEAEDVGVYYCFQATHDPLTFGGGTKVEIK
3 |  |  | 3.5 nM | vandortuzumab (antibody, V domains shown) VH: EVQLVESGGGLVQPGGSLRLSCAVSGYSITSDYAWNWVRQAPGKGLEWVGYISNSGSTSYNPSLKSRFTISRDTSKNTLYLQMNSLRAEDTAVYYCARERNYDYDDYYYAMDYWGQGTLVTVSS VL: DIQMTQSPSSLSASVGDRVTITCKSSQSLLYRSNQKNYLAWYQQKPGKAPKLLIYWASTRESGVPSRFSGSGSGTDFTLTISSLQPEDFATYYCQQYYNYPRTFGQGTKVEIK
